This note sets out measurements from patent publication US7638334B2, “Method for generating engineered cells by homologously recombining segments having increased degeneracy” (Morphotek, Inc., priority 2002, dated 2009).

The assay concerns endogenous MMR activity. The assay is described as follows: pCAR-OF β-galactosidase reporter assay for MMR deficiency (in situ X-gal staining). It is filed as cell-based, human. As to conditions: PMS134 expressed from pEF vector in HEK293 cells. The source says:
A method used to detect MMR deficiency in eukaryotic cells is to employ a reporter gene that has a polynucleotide repeat inserted within the coding region that disrupts its reading frame due to a frame shift. In the case where MMR is defective, the reporter gene will acquire random mutations (i.e. insertions and/or deletions) within the polynucleotide repeat yielding clones that contain a functional reporter gene. An example of the ability to alter desired genes via defective MMR comes from experiments using HEK293 cells (described above), where a mammalian expression construct containing a defective β-galactosidase gene (referred to as pCAR-OF) was transfected into 293PMS134 or 293vec cells as described above. The pCAR-OF vector consists of a β-galactosidase gene containing a 29-basepair poly-CA tract inserted at the 5′ end of its coding region, which causes the wild-type reading frame to shift out-of-frame. […] Another reporter vector called pCAR-IF contains a β-galactosidase in which a 27-bp poly-CA repeat was cloned into the same site as the pCAR-OF gene, but it is biologically active because the removal of a single repeat restores the open reading frame and produces a functional chimeric β-galactosidase polypeptide (not shown). […] Cells were scored positive if the colonies turned blue in the presence of X-gal substrate and scored negative if colonies remained white. […]
Background: A reporter such as luciferase makes a cellular process visible.

B1: PMS134: previously published dominant negative human PMS2 mismatch repair mutant (SEQ ID NO:11/12) (protein, listed as Homo sapiens)
chain: RGGSGVASMERAESSSTEPAKAIKPIDRKSVHQICSGQVVLSLSTAVKELVENSLDAGATNIDLKLKDYGVDLIEVSDNGCGVEEENFEGLTLKHHTSKIQEFADLTQVETFGFRGEALSSLCALSDVTISTCHASAKVGT
Turning to B1, the “dominant negative effect on MMR” value is “robust dominant negative effect”.
